{"source": "patent US20060216231", "about": "“Methods for diagnosing and treating tumors and suppressing cd promoters” (published 2006)", "key": {"hnRNP-K (GST fusion) [1]": {"target": "T1, hnRNP-K (GST fusion) (Homo sapiens, UniProt P61978 SEQ:1-463)", "test": "EMSA; 70 mM KCl, 5 mM NaCl, 20 mM Tris pH 7.5, poly(dI-dC), 4 C; competed by 100-fold unlabeled self", "details": "tags: N-terminal GST fusion, expressed in E. coli XL-2 (construct from D. Levens); label: 32P 5'", "method": "(§1) Binding reactions containing GST/hnRNP-K were performed in the absence (GST-K) or presence (+) of a 100 fold molar excess of unlabeled CD43 PyRo SS, the presence of Mut-11 (Mut) representing a mutant version of CD43 PyRo SS which fails to support PyRol binding Farokhzad et al., (2000) Nucleic Acids Research, 28:2256-2267) or the presence of an unrelated oligonucleotide (NS). The free probe and probe bound by the GST/hnRNP-K protein (GST:hnRNP-K) are arrowed."}, "hnRNP-K (GST fusion) [2]": {"target": "T1, hnRNP-K (GST fusion)", "test": "competition; 100-fold excess fails to compete n1 binding", "details": "tags: N-terminal GST fusion, expressed in E. coli XL-2 (construct from D. Levens)", "method": "as §1"}, "hnRNP-K (GST fusion) [3]": {"target": "T1, hnRNP-K (GST fusion)", "test": "competition; unrelated competitor oligonucleotide; outcome not explicitly described in text", "details": "tags: N-terminal GST fusion, expressed in E. coli XL-2 (construct from D. Levens)", "method": "as §1"}}, "data": [{"binder": "GGGCCCACTTCCTTTCCCCTTG (ssDNA)", "note": "[CD43 PyRo SS]", "values": [{"measurement": "binding result", "setting": "hnRNP-K (GST fusion) [1]", "value": "binds"}]}, {"binder": "GGGCCCACTTCCTTCATATATG (ssDNA)", "note": "[CD43 Mut-11]", "values": [{"measurement": "binding result", "setting": "hnRNP-K (GST fusion) [2]", "value": "no binding"}]}, {"binder": "GAGTTAGCTCACTCATTAGG (ssDNA)", "note": "[NS-SS]", "values": [{"measurement": "binding result", "setting": "hnRNP-K (GST fusion) [3]", "value": "no binding"}]}]}
